The record followed here is US20160024155A1 (published 2016).

For orientation: Kd means the constant that tells how readily two partners part at equilibrium.

In assay [1] the target is T1, A/South Carolina/1/1918 (H1N1) hemagglutinin ectodomain (Influenza A virus A/South …).
Assay [2] deals with T1, A/South Carolina/1/1918 (H1N1) …. The source holds these as a separate data set.
Assay [3] has the same target. The source holds these as a separate data set.
Assay [4] shares this target. The source holds these as a separate data set.

Like-named read-outs stand apart in the source and are kept apart here.

B1: HB80.1 (Met26Thr, Asn36Lys) (designed binder)
chain: MASTRGSGRPWDFSENLAFELALAFTNKDTPDRWAKVAQYVSGRTPEEVKKHYEILVEDIKYIESGKVPFPNYRTTGGNMKTDEKRFRNLKIRLE
With B1, the Kd in assay [1] and in assay [2] was 7.5 nM in each case.

B2: HB36.1 (Asp47Ser) (designed binder)
chain: MSNAMDGQQLNRLLLEWIGAWDPFGLGKDAYDVEAEAVLQAVYETESAFDLAMRIMWIYAFAFNRPIPFPHAQKLARRLLELKQAASSPLPLE
With B2, the Kd is 5 nM in assay [2] and 2 to 5 nM in assay [4]. The “fold increase in binding affinity relative to HB36” value in assay [3] was approximately 40 fold. Further, the “fold increase in binding affinity relative to original design (HB36)” value in assay [4] was more than 10 fold.
